B1: TPR 5TU (parent)
chain: GGAUCUUCUCGAUCUAACAAAAAAGACAAAUCUGCCACAAAGCUUGAGAGCAUCUUCGGAUGCAGAGGCGGCAGCCUUCGGUGGCGCGAUAGCGCCAACGUUCUCAACUAUGACACGCAAAACGCGUGCUCCGUUGAAUGGAGUUUAUCAUG

This sample holds only a part of the variants without activity. Some results are limits rather than exact numbers.

The data set covers variants of B1. The experiment in a line: polymerase ribozyme fitness, log enrichment relative to wild type (log ratio); higher = more active; in vitro selection for triplet polymerase activity. In outline: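 Genotype fitness is the logarithm of its enrichment divided by wild-type enrichment, using inverse-variance-weighted averages of replicates. That logarithm is base 2. Enrichment was measured by Illumina sequencing of input and output libraries from one triplicate in vitro selection round, with frozen incubation at −7 °C, on PCR-built, transcribed mutant libraries of each subunit of a heterodimeric triplet polymerase ribozyme, retaining genotypes with ≥10 input reads and ≥1 read per output.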
For U6G C10G C14A A49C C85A C93U C116U, the “polymerase ribozyme fitness (log ratio)” value was no more than -4.2.

Turning to A47U C51A G58A G80A G83A C103U, the “polymerase ribozyme fitness (log ratio)” value was no more than -4.2.

On to A47G A52G C87U A98G, for which the “polymerase ribozyme fitness (log ratio)” value was -1.52.

Turning to U55A A60G C69U G92U A147U, the “polymerase ribozyme fitness (log ratio)” value is -0.244.

In the case of U31A A39G A40U A41C G48A C95U C131G U148A, the “polymerase ribozyme fitness (log ratio)” value is no more than -4.2.

On to C27A A52G G128U C129U C131G A147U, for which the “polymerase ribozyme fitness (log ratio)” value is no more than -4.2.

G48U G84U: the “polymerase ribozyme fitness (log ratio)” value is -2.01.

For A52U G83A, the “polymerase ribozyme fitness (log ratio)” value is -2.83.

As for A20G A28U G42C A49C C93G C103A, the “polymerase ribozyme fitness (log ratio)” value was no more than -4.2.

G84A A97U: the “polymerase ribozyme fitness (log ratio)” value was -1.12.

Consider U53A C54U G74U C75U G86U G141A, for which the “polymerase ribozyme fitness (log ratio)” value is no more than -4.2.

Take A49U G58A U102G A122U: the “polymerase ribozyme fitness (log ratio)” value is -0.217.

As to A37C U55A G133C U144A, the “polymerase ribozyme fitness (log ratio)” value was -2.6.

Consider C35U A40G C51U G81C C87A, for which the “polymerase ribozyme fitness (log ratio)” value was no more than -4.2.

As for A49U A119C U127A U134A, the “polymerase ribozyme fitness (log ratio)” value is no more than -4.2.

In the case of A29C C96G, the “polymerase ribozyme fitness (log ratio)” value was -4.15.

Regarding A20C A47C A60G C85A G140U, the “polymerase ribozyme fitness (log ratio)” value was no more than -4.2.

For C99G A147C, the “polymerase ribozyme fitness (log ratio)” value was -1.47.

As to A16G A39U C43G G50U G67C U109A U134A U139C, the “polymerase ribozyme fitness (log ratio)” value is no more than -4.2.

Consider A24U A39U C96A C99G U130C C131G, for which the “polymerase ribozyme fitness (log ratio)” value was no more than -4.2.

C38U G80C C85U G100U: the “polymerase ribozyme fitness (log ratio)” value was no more than -4.2.

Turning to G59C C99G G141U, the “polymerase ribozyme fitness (log ratio)” value was -1.13.

A30C A41G C76U G83A A89U G124A C131U C132G G143A U144A C149A: the “polymerase ribozyme fitness (log ratio)” value was no more than -4.2.

For the variant G48A U135A, the “polymerase ribozyme fitness (log ratio)” value was -0.864.

As to A66C C85G G141A U146C, the “polymerase ribozyme fitness (log ratio)” value is no more than -4.2.

In the case of U55A C57A, the “polymerase ribozyme fitness (log ratio)” value was 0.142.

As to A19C U56A G94A C99U U135A U148A U151G, the “polymerase ribozyme fitness (log ratio)” value is no more than -4.2.

In the case of A12G C35A C95U A106U, the “polymerase ribozyme fitness (log ratio)” value is no more than -4.2.

For the variant G80A G81C C95G U145G, the “polymerase ribozyme fitness (log ratio)” value is -1.72.

As to A20U A30G U53A U55G C63G G141U, the “polymerase ribozyme fitness (log ratio)” value is no more than -4.2.

For C105G A120U, the “polymerase ribozyme fitness (log ratio)” value was -0.931.

A16U C103G: the “polymerase ribozyme fitness (log ratio)” value is -3.31.

As to G140U, the “polymerase ribozyme fitness (log ratio)” value was -2.62.

Take C27G C72U G83U A91U C93U: the “polymerase ribozyme fitness (log ratio)” value is no more than -4.2.

For A22U U45A G68A A122G G140U U146A, the “polymerase ribozyme fitness (log ratio)” value was no more than -4.2.

Turning to C36A U56A, the “polymerase ribozyme fitness (log ratio)” value is -3.62.

As for U7C C27U C38U C54G A64G C75U C85A C96U C105G C114U, the “polymerase ribozyme fitness (log ratio)” value is no more than -4.2.

Turning to A16G U55A G74A U82G C85G, the “polymerase ribozyme fitness (log ratio)” value was no more than -4.2.

On to U45A G88C A113C U134A, for which the “polymerase ribozyme fitness (log ratio)” value is no more than -4.2.

For the variant G11C C75U, the “polymerase ribozyme fitness (log ratio)” value is -1.85.

Consider A52G A98U, for which the “polymerase ribozyme fitness (log ratio)” value was -2.02.

For the variant C76A C85A A138G U145C, the “polymerase ribozyme fitness (log ratio)” value was no more than -4.2.

As to U15C A23C A30G U44A G70A C87A G141C, the “polymerase ribozyme fitness (log ratio)” value was no more than -4.2.

For the variant C10G A91G A97G C108A C118G, the “polymerase ribozyme fitness (log ratio)” value was no more than -4.2.

In the case of C5G C14G A41C G48C G126A G140A, the “polymerase ribozyme fitness (log ratio)” value was no more than -4.2.

On to U53C U78G U127C U148C, for which the “polymerase ribozyme fitness (log ratio)” value was no more than -4.2.

A20C C63U A64C: the “polymerase ribozyme fitness (log ratio)” value was no more than -4.2.

On to U82G G92U C131A, for which the “polymerase ribozyme fitness (log ratio)” value is -3.24.

As for C10A G11A A39U C93A G141U, the “polymerase ribozyme fitness (log ratio)” value is no more than -4.2.

A19C C54A C96U A122G G133C: the “polymerase ribozyme fitness (log ratio)” value was -2.39.

For the variant G50U C95A U109C, the “polymerase ribozyme fitness (log ratio)” value was no more than -4.2.

On to U6A A12C G58U A91C A98U C103G C131U, for which the “polymerase ribozyme fitness (log ratio)” value is no more than -4.2.

Take C14A A19G G68A C99A C123U: the “polymerase ribozyme fitness (log ratio)” value is no more than -4.2.

As for G11U C32U G84A C85A C105U C132U U139G U151G, the “polymerase ribozyme fitness (log ratio)” value is -4.14.

Consider C95A C96A U104C A142C, for which the “polymerase ribozyme fitness (log ratio)” value is -4.07.

In the case of G50C C57A A66C C85G, the “polymerase ribozyme fitness (log ratio)” value is no more than -4.2.

For A17C U31C G50C C51A, the “polymerase ribozyme fitness (log ratio)” value is -0.997.

As to C57A U102G, the “polymerase ribozyme fitness (log ratio)” value is -1.73.

Turning to A20C U56A C93A C116A, the “polymerase ribozyme fitness (log ratio)” value is -1.28.

A17C C54A: the “polymerase ribozyme fitness (log ratio)” value was -1.11.

As to A41U A52C A98U, the “polymerase ribozyme fitness (log ratio)” value was -2.65.

A23U G25C A52C U55A A122C: the “polymerase ribozyme fitness (log ratio)” value is no more than -4.2.

As to C85G G143U, the “polymerase ribozyme fitness (log ratio)” value was -3.79.

On to A3C C14A A26G G50C A91G G117A C125U G140A G143C, for which the “polymerase ribozyme fitness (log ratio)” value is no more than -4.2.

With C14G A73G C79G A98G G143C, the “polymerase ribozyme fitness (log ratio)” value was no more than -4.2.

Turning to A20C G48C G62A, the “polymerase ribozyme fitness (log ratio)” value was -2.35.

For C69U G70C C93G C114A A150C, the “polymerase ribozyme fitness (log ratio)” value was no more than -4.2.

For the variant C69U G86C, the “polymerase ribozyme fitness (log ratio)” value was no more than -4.2.

On to A41U G59A A73G A89U C93G A107G, for which the “polymerase ribozyme fitness (log ratio)” value is no more than -4.2.

Take A39U G100C U148A: the “polymerase ribozyme fitness (log ratio)” value was -4.2.

For the variant A12U U15C U56A G92A A150G, the “polymerase ribozyme fitness (log ratio)” value is -1.16.

For the variant A3U C8G, the “polymerase ribozyme fitness (log ratio)” value was no more than -4.2.

As to U44A G48A G58C G83A, the “polymerase ribozyme fitness (log ratio)” value is no more than -4.2.

With U4G C38U G58A C95U C96U U127C, the “polymerase ribozyme fitness (log ratio)” value is -3.54.

Turning to A28U A49C C103G, the “polymerase ribozyme fitness (log ratio)” value was no more than -4.2.

On to A41C G50A G86U A137C C149A, for which the “polymerase ribozyme fitness (log ratio)” value is no more than -4.2.

As for A40G U77G G80A C93A A107G A120C A121U, the “polymerase ribozyme fitness (log ratio)” value is no more than -4.2.

Regarding U13A A21C A73G C85G A89U, the “polymerase ribozyme fitness (log ratio)” value was -2.11.

Regarding G84C C85G, the “polymerase ribozyme fitness (log ratio)” value was -4.03.

For A40C C87U, the “polymerase ribozyme fitness (log ratio)” value was -0.91.

As for U53G A110G G117A U148A, the “polymerase ribozyme fitness (log ratio)” value is no more than -4.2.

Take C27U U53A U61A C69G G88C: the “polymerase ribozyme fitness (log ratio)” value is no more than -4.2.

Turning to G83A G128A, the “polymerase ribozyme fitness (log ratio)” value was -3.83.

These data come from the RNAGym collection of RNA variant scans (doi:10.1073/pnas.2313332121).
